Source: US20150266957A1 (Regeneron, published 2015)
Blank lines part the entries; values can stand above or below the binder they belong to.

How the values were obtained:
[1] = molecular target: human PROKR1 (human, UniProt Q8TCW9 1-393); assay: cell-based or functional assay
[2] = molecular target: T1, human PROKR2(1-53)-hFc (human); assay: SPR (Biacore 4000), 25 C, antibody captured
T1 construct: also called soluble human PROKR2 (N-terminal portion)
Experimental: (§1) Kinetic experiments were carried out using HBS-EP (10 mM HEPES, 150 mM NaCl, 3 mM EDTA, 0.05% Surfactant P20, pH 7.4) as both the running buffer and the sample buffer. Antigen-antibody association rates were measured by injecting 2 concentrations (25 and 100 nM) of both human PROKR1 (1-62)-hFc (SEQ ID NO:179) and human PROKR2(1-53)-hFc (SEQ ID NO:180) over the captured antibody surface. Antibody-antigen association was monitored for 90 seconds while dissociation was monitored for 360 seconds. Kinetic on-rate (kₐ) and off-rate (kd) constants were determined from the data using Scrubber software version 2.0 c. Binding dissociation equilibrium constants (KD) and dissociative half-lives (t 1/2) were calculated from the kinetic rate constants as: KD=kd/kₐ and t 1/2=ln(2)/kd.

[3] = molecular target: T2, mouse PROKR1 (mouse (Mus musculus), UniProt Q9JKL1 1-393); assay: flow cytometry, HEK293 cells expressing the target
T2 construct: whole, on cells; Expressed on engineered HEK293 or CHO cells; also called mPROKR1; 293/mPROKR1
Experimental: (§2) Anti-PROKR antibodies generated in accordance with Example 1 were tested for the ability to bind to human, mouse, and monkey PROKR1 and PROKR2. For these experiments, HEK293 cells were engineered to express: human PROKR1; human PROKR2; mouse PROKR1; mouse PROKR2; cynomolgus monkey PROKR1; or cynomolgus monkey PROKR2. Binding of anti-human PROKR antibodies to the PROKR-expressing cell lines was measured by flow cytometry.
(§3) Adherent cells were collected using 1 mM EDTA in PBS, then washed, and re-suspended in cold PBS containing 5% FBS. For the binding experiments, each anti-PROKR antibody was added to 250,000 cells in 500 μl of PBS with 5% FBS (final antibody concentration of 13 nM). After incubation for 20 minutes at room temperature, the cells were washed with PBS containing 5% FBS. A secondary antibody, recognizing either human (Jackson Immuno Research, #115-135-205) or mouse Fc (BD Pharmigen, #550826) and conjugated to allophycyanin, was then added to the cell mixture at a final concentration of 13.3 nM. After incubating for 20 minutes on ice, the cells were washed and resuspended in PBS containing 5% FBS and then sorted and analyzed on a FACSCalibur (BD Biosciences) flow cytometer to determine relative binding by the candidate antibodies. The cell samples containing secondary antibody alone were used as negative control for FACS gating. Histograms of cells stained with anti-human PROKR antibodies were compared with cells stained with secondary alone. […] ND=not determined.

[4] = molecular target: T3, mouse PROKR2 (mouse (Mus musculus), UniProt Q8K458 1-381); assay: flow cytometry, HEK293 cells expressing the target
T3 construct: whole, on cells; Expressed on engineered HEK293 or CHO cells; also called mPROKR2; CHO/mPROKR2
Experimental: as §2, §3

[5] = molecular target: T4, cynomolgus monkey PROKR1 (cynomolgus monkey (Macaca fascicularis), UniProt G7PMD0 1-393); assay: flow cytometry, HEK293 cells expressing the target
T4 construct: whole, on cells; Expressed on engineered HEK293 cells; also called MfPROKR1; 293/mfPROKR1
Experimental: as §2, §3

[6] = molecular target: T5, cynomolgus monkey PROKR2 (cynomolgus monkey (Macaca fascicularis), UniProt A0A7N9CAJ3 1-384); assay: flow cytometry, HEK293 cells expressing the target
T5 construct: whole, on cells; Expressed on engineered HEK293 cells; also called MfPROKR2; 293/mfPROKR2
Experimental: as §2, §3

[7] = molecular target: T6, human PROKR2 (human, UniProt Q8NFJ6 1-384); assay: flow cytometry, HEK293 cells expressing the target, 13 nM antibody
T6 construct: Expressed on engineered HEK293 or CHO cells; also called hPROKR2; prokineticin receptor 2
Experimental: as §2, §3

[8] = molecular target: T7, human PROKR1 (1-62)-hFc (human); assay: SPR (Biacore 4000), 25 C, antibody captured, antigen injected at 25 and 100 nM
T7 construct: also called soluble human PROKR1 (N-terminal portion)
Experimental: as §1

[9] = molecular target: T3, mouse PROKR2; assay: flow cytometry, HEK293 cells expressing the target, 13 nM antibody
Experimental: as §2, §3

T7 sequence (chain, as listed by the source limits assumed): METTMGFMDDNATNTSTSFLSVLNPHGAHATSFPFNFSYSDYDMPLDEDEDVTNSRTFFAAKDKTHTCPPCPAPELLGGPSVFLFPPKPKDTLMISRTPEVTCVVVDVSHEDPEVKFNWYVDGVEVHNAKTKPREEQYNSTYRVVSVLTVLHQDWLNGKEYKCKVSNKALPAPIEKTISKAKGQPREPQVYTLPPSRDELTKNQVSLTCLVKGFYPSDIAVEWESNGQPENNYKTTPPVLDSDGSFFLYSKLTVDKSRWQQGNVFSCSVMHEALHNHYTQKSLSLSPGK
Chain of human PROKR1 (Q8TCW9 whole entry): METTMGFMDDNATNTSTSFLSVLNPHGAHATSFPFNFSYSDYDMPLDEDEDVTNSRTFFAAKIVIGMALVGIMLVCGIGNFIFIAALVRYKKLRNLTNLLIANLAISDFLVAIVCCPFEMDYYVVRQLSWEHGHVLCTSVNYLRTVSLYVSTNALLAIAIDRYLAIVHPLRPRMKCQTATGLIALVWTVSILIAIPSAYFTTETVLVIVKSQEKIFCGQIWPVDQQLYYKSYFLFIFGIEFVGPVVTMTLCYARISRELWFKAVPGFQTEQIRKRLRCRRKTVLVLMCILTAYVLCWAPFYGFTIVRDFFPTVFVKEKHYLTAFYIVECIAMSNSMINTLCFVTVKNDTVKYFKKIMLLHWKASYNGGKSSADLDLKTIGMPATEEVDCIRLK
T2 sequence (Q9JKL1 whole entry): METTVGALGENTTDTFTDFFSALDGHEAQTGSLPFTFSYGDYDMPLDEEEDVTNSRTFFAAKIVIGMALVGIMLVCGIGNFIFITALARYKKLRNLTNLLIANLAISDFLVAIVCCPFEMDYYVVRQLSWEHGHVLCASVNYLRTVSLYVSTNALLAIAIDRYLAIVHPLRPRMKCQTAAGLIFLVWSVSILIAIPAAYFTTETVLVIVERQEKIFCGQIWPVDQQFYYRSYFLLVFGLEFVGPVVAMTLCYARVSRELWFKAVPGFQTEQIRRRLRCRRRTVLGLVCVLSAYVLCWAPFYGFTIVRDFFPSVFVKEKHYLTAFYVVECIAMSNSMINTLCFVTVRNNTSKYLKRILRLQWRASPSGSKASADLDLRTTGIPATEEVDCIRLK
T3 sequence (Q8K458 whole entry): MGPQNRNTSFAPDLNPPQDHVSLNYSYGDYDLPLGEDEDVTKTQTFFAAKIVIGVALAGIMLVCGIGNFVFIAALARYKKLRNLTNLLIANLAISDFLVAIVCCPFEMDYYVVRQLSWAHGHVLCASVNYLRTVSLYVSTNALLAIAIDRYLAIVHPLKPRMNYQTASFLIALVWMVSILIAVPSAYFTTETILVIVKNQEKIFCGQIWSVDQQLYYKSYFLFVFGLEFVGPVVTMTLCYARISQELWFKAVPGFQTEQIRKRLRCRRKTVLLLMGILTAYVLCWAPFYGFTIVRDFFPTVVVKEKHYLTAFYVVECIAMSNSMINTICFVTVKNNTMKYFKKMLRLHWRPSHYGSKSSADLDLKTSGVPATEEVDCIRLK
T4 sequence (G7PMD0 entry or part of it): as the sequence (Q8TCW9 whole entry) above, with V22A, T31A, S40G, I82V, V135I, K210R, V246F, D348N, V350A counted along it
T6 sequence (Q8NFJ6 whole entry): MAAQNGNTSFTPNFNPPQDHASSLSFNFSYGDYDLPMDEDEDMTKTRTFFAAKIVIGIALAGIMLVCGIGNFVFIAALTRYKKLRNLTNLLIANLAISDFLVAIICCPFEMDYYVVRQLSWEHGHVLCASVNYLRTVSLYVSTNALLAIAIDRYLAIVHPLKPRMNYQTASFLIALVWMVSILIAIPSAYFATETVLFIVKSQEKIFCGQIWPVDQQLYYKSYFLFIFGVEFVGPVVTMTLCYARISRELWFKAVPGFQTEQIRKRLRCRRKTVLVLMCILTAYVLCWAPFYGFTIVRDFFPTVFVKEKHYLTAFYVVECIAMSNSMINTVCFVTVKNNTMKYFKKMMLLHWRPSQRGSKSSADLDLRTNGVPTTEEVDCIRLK
T5 sequence (A0A7N9CAJ3 entry or part of it): as the sequence (Q8NFJ6 whole entry) above, with T11A, R357W, D364E, T374A counted along it

Block (%), calcium flux, hPROKR1 + PK1 (20 nM hPK1) [1]: 92%
IC50 (nM), inhibition of calcium flux, hPROKR1 + PK1 (20 nM hPK1) [1]: 14.9 nM
IC50 (nM), inhibition of calcium flux, hPROKR1 + PK2 (20 nM hPK2) [1]: 16.2 nM
binding result [3]: no binding
binding result [4]: no binding
binding result [5]: no binding
binding result [6]: no binding
binding result [7]: binds
Kd [8]: 4.85 nM
koff [8]: 0.00103 s⁻¹
kon [8]: 212000 M⁻¹ s⁻¹
t½ [8]: 11 min
B1: H1M6386N (antibody, mouse IgG1, V domains shown)
VH: NVQLVESGGGLVKPGGSLRLSCVASGFTFANAWMTWVRQAPGKGLEWVGRIKSKTDGGTTDHAAPVKGRFIVSRDDSKSTLYLQMNSLKTEDTAVYYCTNYAFQLWGQGTLVTVSS
VL: DIVMTQTPLSSLVTLGQSASISCRSSQGLVHSDGNTYLSWLHQRPGQPPRLLIYKISNRFSGVPDRFTGSGAGTDFTLKISRVEAEDVGVYYCMQSTQFPRTFGQGTKVEIK
notes: Chimeric: human variable domains, mouse constant domains
binding result [2]: no binding (tested: 25 and 100 nM antigen injected)

binding result [3]: no binding
binding result [5]: no binding
binding result [7]: binds
binding result [9]: binds
B2: H2M6385N (antibody, V domains shown)
VH: EVQVVESGGGLVKPGGSLRLSCAASGFTFSNVWMTWVRQAPGKGLEWVGRIKSKIEGGTTDYAASVKGRFTISRDDSKNTQSLQMNSLKSEDTAVYYCSTGHLAYWGQGTLVIVSS
VL: DIVMTQTPLSSPVSLGQPASISCRSSQSLVHSDGSTYLSWLQQRPGQPPRLLIYKISNRFSGVPDRFSGSGAGTDFTLKISRVEAEDVGIYYCMQATQFPTFGQGTKVEIK
notes: the prefix H2M is not spelled out
